# Measurements taken from US20260185118A1 (priority 2023, published 2026).
# Positions count from the first letter of the chain named. Where two headings read alike, the source gives them in different places.
# B1: CsPUB21-Myc (protein)
# chain: MILSWKRLRGGRGRRAGKKQPGVESGGEMELTTPNHFRCPISLDLMKDPVTLSTGITYDRENIEKWIHEDGNITCPVTNRVLTSFEPIPNHTIRRMIQDWCVENRSYGIERIPTPRIPVSSVEVFEINCNITTACKSEDQAGCRDLVAKIKKWTKESDRNKRCIVDNGAVSVLAEAFETFSKTCLDENVSVLEEILSTLTLLFPLAGEGLTYLGSASSMRCMVWFLKSGDLSRRRNAVLVLREIVSSDHRKVNVLLDIEGAIEPLFKLIKEPICPTATKASLVVVYRTITSASATEKPIQKFVDMGLVSLLLEMLVDAQRSLCEKALSVLDGLCSSDYGRGDAYNNSLIFPVIVKKILRVSDLATEFAVSILWKLCKNEEREEKTAFAEALQVGAFQKLLLLLQVGCADKTKEHVSELLKLLNPHRARLECIDSMDFKDLKRPF
# B2: CsPUB21DN-Myc (protein)
# chain: B1 chain with C39A
# B3: YFP-CsPUB21 (protein)
# chain: B1 chain
# B4: YFP-CsPUB21DN (protein)
# chain: B1 chain with C39A
# B5: CsPUB21: citrus plant U-box E3 ubiquitin ligase protein, amino acid sequence SEQ ID No. 1; overexpressed in citrus (protein)
# chain: B1 chain
# B6: CsPUB21DN (protein)
# chain: B1 chain with C39A
# modifications: left off: large carriers
# B7: CsTPS21-7: citrus terpene synthase protein, SEQ ID No. 7, purified as GST fusion protein (protein)
# chain: MKDMSIPLLAAVSSSTEETVRPIADFHPTLWGNHFLKSAADVETIDAATQEQHAALKQEVRRMITTTANKLAQKLHMIDAVQRLGVAYHFEKEIEDELGKVSHDLDSDDLYVVSLRFRLFRQQGVKISCDVFDKFKDDEGKFKESLINDIRGMLSLYEAAYLAIRGEDILDEAIVFTTTHLKSVISISDHSHVNSNLAEQIRHSLQIPLRKAAARLEARYFLDIYSRDDLHDETLLKFAKLDFNILQAAHQKEASIMTRTKDISEVDTILGVKVKKHSGERANISIIFDFFRWDIGLIDTLPEYMKFIVKALLDIYREAEEELAKEGRSYGIPYAKQMMQELIILYFTEAKWLYKGYVPTFDEYKSVALRSIGLRTLAVASFVDLGDFIATKDNFECILKNAKSLKATETIGRLMDDIAGYKFEQKRGHNPSAVECYKNQHGVSEEEAVKELLLEVANSWKDINEELLNPTTVPLPMLQRLLYFARSGHFIYDDGHDRYTHSLMMKRQVALLLTEPLAI
# modifications: GST fusion tag
# What was measured:
# bacterial and fungal = details: it has been shown; cited from earlier work
# CsMYC2 [1] = format: biochemical, Citrus sinensis; details: with AtUBA1, AtUBC8 and ubiquitin, anti-MBP immunoblot
# CsMYC2 [2] = format: binding, Citrus sinensis; details: yeast AH109, SD-Leu-Trp-His with 5 mM 3-AT
# CsMYC2 [3] = format: cell-based, Citrus sinensis; details: tobacco leaves, 2-3 days, cytoplasm and nucleus
# CsPUB21 = format: biochemical, Citrus sinensis; details: in the presence of E1 (AtUBA1) and E2 (AtUBC8), anti-c-myc immunoblot
# CsMYC2 protein = format: cell-based, Citrus sinensis; details: tobacco leaves, 35S:CsMYC2-myc co-injected, versus 35S:YFP
# [4] = test system: terpene synthase CsTPS21 gene cluster; format: in vivo, Valencia orange; details: transgenic citrus leaves overexpressing, compared with blank vector control
# [5] = test system: Huanglongbing pathogen CLas; format: in vivo, Candidatus Liberibacter asiaticus; details: for pathogen titer versus vector control: qPCR, newborn leaves; for disease phenotype: 3 months after grafting infected branches onto transgenic citrus
# [6] = test system: Huanglongbing pathogen CLas; format: in vivo, Candidatus Liberibacter asiaticus; details: 7 days after feeding of CLas-carrying psyllids, qPCR
# [7] = test system: Huanglongbing pathogen CLas; set-up: species or system Candidatus Liberibacter asiaticus; details: in vivo
# [8] = format: biochemical, Citrus sinensis L.Osbeck; details: 2 μg protein, 10 μg FPP, 30° C., 30 min
molecule,measurement,setting,value
C=C1CC/C=C(\C)CC[C@@H]2[C@@H]1CC2(C)C [β-caryophyllene],bacterial and fungal killing effect,bacterial and fungal,rapid bacterial and fungal killing effect
B1,"polyubiquitination of MBP-CsMYC2 (immunoblot with anti-MBP tag antibody; E. coli system with AtUBA1, AtUBC8 and FLAG-UBQ)",MBP-CsMYC2-HA,CsPUB21 is able to effectively polyubiquitinate the CsMYC2 protein in vitro
B2,"polyubiquitination of MBP-CsMYC2 (immunoblot with anti-MBP tag antibody; E. coli system with AtUBA1, AtUBC8 and FLAG-UBQ)",MBP-CsMYC2-HA,CsPUB21DN cannot ubiquitinate CsMYC2
B3,"accumulated level of the CsMYC2 protein on co-expression in tobacco leaves (immunoblot, anti-c-myc)",CsMYC2-myc,the accumulated level of the CsMYC2 protein and coexpression of CsPUB21 were significantly reduced
B4,"accumulated level of the CsMYC2 protein on co-expression in tobacco leaves (immunoblot, anti-c-myc)",CsMYC2-myc,this reduction was inhibited by coexpression of CsPUB21DN
B5,polyubiquitination of the CsMYC2 protein in vitro,CsMYC2 [1],able to effectively polyubiquitinate
same,interaction with CsMYC2 (yeast two-hybrid),CsMYC2 [2],interaction between CsPUB21 and CsMYC2 was confirmed
same,interaction with CsMYC2 (BiFC),CsMYC2 [3],confirmed
same,E3 ubiquitin ligase activity (auto-ubiquitination),CsPUB21,has the E3 ubiquitin ligase activity
same,accumulated level of the CsMYC2 protein on coexpression,CsMYC2 protein,significantly reduced
same,"expression of four CsTPS21 genes (CsTPS21-2, CsTPS21-7, CsTPS21-9, CsTPS21-10)",[4],significantly reduces
same,pathogen titer versus vector control,[5]; 2 and 3 months of pathogen infestation,significantly higher than that of the vector control
same,disease phenotype,[5],show disease characteristics of Huanglongbing infection
B6,CLas detection versus vector control plants,[6],significantly lower than that of the vector control plants
same,Ct values versus healthy plants,[6],no difference in the Ct values
same,concentration of CLas in the susceptible leaves,[7],significantly reduced
same,disease phenotype,[5],still show a healthy state
same,pathogen titer versus vector control,[5]; 3 months of infestation,lower pathogen titer than the vector control plants
B7,7-epi-sesquiterpene share of the total compounds,[8],4.79±0.11%
same,(E)-β-farnesene share of the total compounds,[8],5.54±0.32%
same,sesquiterpene share of the total compounds,[8],7.86±0.70%
same,β-caryophyllene share of the total product,[8],81.81±0.92%
